Laboratory results: publication PMC3600821

molecular target: Skeletal muscle actin (F-actin) (rabbit) (UniProt P68135)

| actin-activated Mg-ATPase: K (ATPase) (the actin concentration giving V=Vmax/2) [µM] | actin-activated Mg-ATPase: Vmax/K (ATPase) (catalytic efficiency) [s⁻¹ µM⁻¹] | Substance |
| --- | --- | --- |
| 59 | 0.13 | M761-2R (761-aa wild-type Dictyostelium myosin II catalytic domain fused to two α-actinin repeats) (from UniProt P08799 1-761) |
| 15.8 | 1.23 | Muscle S1 (skeletal muscle myosin II subfragment 1) (domain or fragment) |
| 17.3 | 0.18 | S619C-IQ (S619C construct extended to include one IQ domain) (from UniProt P08799 1-790) (domain or fragment) |
